The values below come from patent publication US20260317399 (published 2026).

Numbering of substitutions follows the chain as printed.

By Kd is commonly meant the equilibrium constant for the complex coming apart. High values mean a looser complex, low ones a tighter complex.

T1: FcgRIa (human, UniProt P12314)
T1 chain: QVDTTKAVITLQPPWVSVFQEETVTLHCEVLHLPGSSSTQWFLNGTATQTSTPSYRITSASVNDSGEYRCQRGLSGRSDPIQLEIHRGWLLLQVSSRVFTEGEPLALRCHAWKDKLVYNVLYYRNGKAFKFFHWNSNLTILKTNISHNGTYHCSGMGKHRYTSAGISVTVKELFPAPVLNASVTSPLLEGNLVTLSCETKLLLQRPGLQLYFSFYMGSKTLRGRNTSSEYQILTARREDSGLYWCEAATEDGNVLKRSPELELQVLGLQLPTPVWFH

T2: FcgRIIaH (human, UniProt P12318)
T2 chain: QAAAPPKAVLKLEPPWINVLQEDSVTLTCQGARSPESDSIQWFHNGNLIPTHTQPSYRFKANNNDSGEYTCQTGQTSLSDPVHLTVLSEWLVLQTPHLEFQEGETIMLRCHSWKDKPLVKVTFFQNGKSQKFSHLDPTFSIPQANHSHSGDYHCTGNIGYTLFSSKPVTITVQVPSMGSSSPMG

B1: BP557 (antibody)
chain 1: QVQLQESGPGLVKPSETLSLTCAVSGHSISHDHAWSWVRQPPGEGLEWIGFISYSGITNYNPSLQGRVTISRDNSKNTLYLQMNSLRAEDTAVYYCARSLARTTAMDYWGEGTLVTVSSASTKGPSVFPLAPSSKSTSGGTAALGCLVKDYFPEPVTVSWNSGALTSGVHTFPAVLQSSGLYSLSSVVTVPSSSLGTQTYICNVNHKPSNTKVDKKVEPKSCDKTHTCPPCPAPELLGDDSVFLFPPKPKDTLMISRTPEVTCVVVDVGDEDGEVKFNWYVDGVEVHNAKTKPREEQDNSTYRVVSVLTVLHQDWLNGKEYKCKVSNKALPRPIEKTISKAKGQPREPQVYTLPPSRDELTKNQVSLTCLVKGFYPSDIAVEWESNGQPENNYKTTPPVLDSDGSFFLYSKLTVDKSRWQQGNVFSCSVMHEALHNHYTQESLSLSP
chain 2: not shown
B2: IL6R-AP029/IL6R-BP409/IL6R-L (antibody)
chain 1: B1 chain 1 with E235D, G269S, D270E, D358K, H437R, E441K
chain 2: B1 chain 1 with E235D, L237E, G269S, D270E
chain 3: not shown
B3: IL6R-BP419/IL6R-L (antibody)
chain 1: B1 chain 1 with E235D, L237F, G269S, D270E
chain 2: not shown
B4: IL6R-BP408/IL6R-L (antibody)
chain 1: B1 chain 1 with E235D, L237Q, G269S, D270E
chain 2: not shown
B5: IL6R-AP029/IL6R-BP408/IL6R-L (antibody)
chain 1: B1 chain 1 with E235D, G269S, D270E, D358K, H437R, E441K
chain 2: B1 chain 1 with E235D, L237Q, G269S, D270E
chain 3: not shown
B6: IL6R-BP259/IL6R-L (antibody)
chain 1: B1 chain 1 with S126D, E235D, G269S
chain 2: not shown
B7: IL6R-BP257/IL6R-L (antibody)
chain 1: B1 chain 1 with S126E, E235D, G269S, D298Y
chain 2: not shown
B8: IL6R-BP260/IL6R-L (antibody)
chain 1: B1 chain 1 with S126E, E235D, G269S
chain 2: not shown
B9: IL6R-BP256/IL6R-L (antibody)
chain 1: B1 chain 1 with S126D, E235D, G269S, D298Y
chain 2: not shown

The target of one test is T1, FcgRIa. The test can be described thus: SPR. Background: In SPR one partner is held on a chip, and binding of the other changes the refractive index at the surface.
As to B1, binding was put at a Kd of 0.013 µM.

The next test deals with T3, FcgRIIIaV (human, UniProt P08637). Nature of the test: SPR.
T3 sequence (P08637 17-208 F176V): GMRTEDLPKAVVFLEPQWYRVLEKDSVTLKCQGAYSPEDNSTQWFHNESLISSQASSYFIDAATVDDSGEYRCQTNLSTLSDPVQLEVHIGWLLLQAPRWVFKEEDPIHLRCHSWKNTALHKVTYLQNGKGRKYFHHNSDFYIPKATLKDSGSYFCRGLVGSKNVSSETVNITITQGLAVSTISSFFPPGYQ
For B2, binding was put at a Kd of 28 µM.

Molecule B3 yielded a Kd of 38 µM. This Kd and that of the molecule before are within 1.5-fold of each other.

Turning to B4, the Kd stood at 50 µM.

The molecule B5 yielded a Kd of 31 µM.

A further test concerns the target T2, FcgRIIaH. The test can be described thus: SPR.
B2 displayed a Kd of 9.4 µM. This lies in the single-digit micromolar range.

Consider B3, for which the Kd was 38 µM.

In turn, B4 came in with a Kd of 77 µM.

As for B5, the Kd worked out at 8.2 µM.

A further test concerns the target T2, FcgRIIaH. The test can be described thus: SPR. The source holds these as a separate data set.
B6: the Kd turned out to be 18 µM.

With B7, the Kd turned out to be 39 µM.

In turn, B8 showed a Kd of 3.9 µM.

As to B9, the affinity, expressed as Kd, was 21 µM.

Another test concerns the target T3, FcgRIIIaV. The test can be described thus: SPR. The source holds these as a separate data set.
B6 showed a Kd of 11 µM.

With B7, the Kd was found to be 19 µM.

Take B8: binding was characterised by a dissociation constant (Kd) of 21 µM. This Kd and that of the molecule before are within 1.5-fold of each other.

The molecule B9 registered a Kd of 11 µM.
